Legend:
[1] = target: T1, NΔ360 (derivative of EBNA1) (Epstein-Barr virus, UniProt P03211); format: biochemical
T1 construct: NΔ360 and NΔ389 have a methionine followed by amino acids 361 and 390 to the carboxy-terminus, respectively; added initiator methionine (N); made in house; host or cells: E. coli
Excerpt: Two DNAs used as probes in this study were generated by endonuclease digestion of cloned DNAs. That with two EBNA1-binding sites is the 131 bp, SalI to PstI fragment derived from p880 (30); and that with five GAL4-binding sites is the 109 bp, HinDIII to XbaI fragment derived from G5BCAT (31). DNA fragments were purified from agarose gels. […] This method distinguishes less than two-fold differences in DNA concentrations. These DNAs were labeled with the Klenow fragment of DNA Polymerase 1 in the presence of dATP, dGTP, dTTP, and ^32P α-dCTP (Amersham), and precipitated three times to remove unincorporated label (32).
The derivatives of EBNA1 (bEBNA1, NΔ360, NΔ389) and the GAL4 derivatives (GAL4(1-94), GAL4(1-94)&54-89, GAL4(1-94)&331-361, GAL4(1-94)&372-391) used in this study were all produced and purified as previously described (28). Briefly, bEBNA1 lacks amino acids 2 through 7 and all but fifteen amino acids of the gly-gly-ala repeats and was expressed in SF21 cells (23). NΔ360 and NΔ389 lack the first 360 and 389 amino acids, respectively, and were expressed in E. coli. GAL4(1-94) contains amino acids 1 to 94 of the yeast transactivator GAL4 plus eight carboxy-terminal amino acids coded by the poly-cloning region. The fusions designated GAL4(1-94)&#—# contain the indicated residues from EBNA1 cloned in frame into the poly-cloning region. All derivatives and fragments of EBNA1 were derived from the B95-8 viral strain (33, 15).
A.A. 40-89 and A.A. 331-391 were generated by amplifying the fragment of EBNA1 encoding those amino acids with PCR primers containing SalI and XbaI sites at the 5′ ends. […] The sequence of both clones was verified using an ABI Prism automated sequencer (Applied BioSystems). Expression of the fusion proteins in BL21 bacteria containing a DE3 lysogen and carrying pLysS was done as previously described (28). […]
Gel shift assays were done as previously described (28). […] The percentage of DNA linked is determined by dividing the amount of linked DNA by the total amount of DNA in the lane. […]

[2] = target: bEBNA1 (derivative of EBNA1); format: biochemical, Epstein-Barr virus
Procedure: Two DNAs used as probes in this study were generated by endonuclease digestion of cloned DNAs. That with two EBNA1-binding sites is the 131 bp, SalI to PstI fragment derived from p880 (30); and that with five GAL4-binding sites is the 109 bp, HinDIII to XbaI fragment derived from G5BCAT (31). DNA fragments were purified from agarose gels. They were quantified by making serial dilutions in the presence of ethidium bromide (0.5 μg/mL) and comparing their intensities, when exposed to ultraviolet light, to that of similar dilutions of a standard DNA. This method distinguishes less than two-fold differences in DNA concentrations. These DNAs were labeled with the Klenow fragment of DNA Polymerase 1 in the presence of dATP, dGTP, dTTP, and ^32P α-dCTP (Amersham), and precipitated three times to remove unincorporated label (32).
The derivatives of EBNA1 (bEBNA1, NΔ360, NΔ389) and the GAL4 derivatives (GAL4(1-94), GAL4(1-94)&54-89, GAL4(1-94)&331-361, GAL4(1-94)&372-391) used in this study were all produced and purified as previously described (28). Briefly, bEBNA1 lacks amino acids 2 through 7 and all but fifteen amino acids of the gly-gly-ala repeats and was expressed in SF21 cells (23). […]
Gel shift assays were done as previously described (28). […] The percentage of DNA linked is determined by dividing the amount of linked DNA by the total amount of DNA in the lane.

T1 sequence (P03211 361-641, stated change not applied): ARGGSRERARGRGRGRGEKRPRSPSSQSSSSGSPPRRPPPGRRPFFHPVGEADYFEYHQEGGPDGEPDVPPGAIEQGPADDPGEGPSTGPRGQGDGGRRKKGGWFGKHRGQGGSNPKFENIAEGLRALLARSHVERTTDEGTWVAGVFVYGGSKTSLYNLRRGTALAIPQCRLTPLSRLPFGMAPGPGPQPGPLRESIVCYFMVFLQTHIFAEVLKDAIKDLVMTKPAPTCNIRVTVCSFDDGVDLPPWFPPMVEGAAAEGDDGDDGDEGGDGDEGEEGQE

B1: Rnase A: control protein (protein, UniProt P61823 27-150, looked up)
Ribonuclease pancreatic: KETAAAKFERQHMDSSTSAASSSNYCNQMMKSRNLTKDRCKPVNTFVHESLADVQAVCSQKNVACKNGQTNCYQSYSTMSITDCRETGSSKYPNCAYKTTQANKHIIVACEGNPYVPVHFDASV
**Q.** B1 was tested. Which Ki ([1]; 6.5 nM dimers of NΔ360, 20 fmols DNA with two EBNA1-binding sites, Ki = concentration of competitor which inhibits linking to 50%, read-out: Ki against NΔ360) did it give?
**A.** 30 µM

**Q.** What about the IC50 ([1]; DNAs with two EBNA1-binding sites, read-out: Concentration inhibiting linking by NΔ360 to 50%) of the same molecule?
**A.** 30 µM

**Q.** What about the “Amount required to reduce linking by 50% relative to A.A. 331-391” value ([1]; linking by NΔ360) of the same molecule?
**A.** Approximately 1000 fold

**Q.** And the Ki ([2]; 6.5 nM dimers of bEBNA1, 20 fmols DNA with two EBNA1-binding sites, Ki = concentration of competitor which inhibits linking to 50%, read-out: Ki against bEBNA1)?
**A.** > 42 µM

**Q.** What about the “Sensitivity of bEBNA1-mediated linking to competitor” value ([2]; DNAs with two binding sites, range of concentrations tested) of the same molecule?
**A.** insensitive
